Legend:
[1] = target: rituximab (human monoclonal IgG1) (human); assay: SPR; rituximab covalently immobilised (NHS/EDC) on a CM5 chip, Biacore X100; Z3 flowed over in HBS-EP+ (10 mM HEPES, 150 mM NaCl, 3 mM EDTA, 0.005% Tween-20, pH 7.4); 1:1 Langmuir model; KD calculated as koff/kon
[2] = target: rituximab (human monoclonal IgG1) (human); assay: differential scanning fluorimetry; equimolar (1:1) mixture of rituximab and Z3 against rituximab alone; SYPRO orange, 20 mM Tris, pH 7.4
[3] = target: rituximab (human monoclonal IgG1) (human); assay: ITC; Z3 titrated into rituximab in the sample cell; PBS, pH 7.4, 25 °C; MicroCal PEAQ-ITC; triplicate
[4] = target: linear Z3 (linear trimer of the Staphylococcus aureus protein A Z domain) (Staphylococcus aureus); assay: AUC; sedimentation velocity at 40,000 and 60,000 rpm, PBS (Dulbecco), 20 °C, 220 nm; molar mass transformation

Chain of rituximab (human monoclonal IgG1) (human) (heavy, as listed by the source, chain 1 of 2): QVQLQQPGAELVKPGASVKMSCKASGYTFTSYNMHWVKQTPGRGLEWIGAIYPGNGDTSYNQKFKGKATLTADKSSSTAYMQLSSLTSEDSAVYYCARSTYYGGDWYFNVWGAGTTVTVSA
Chain of rituximab (human monoclonal IgG1) (human) (light, as listed by the source, chain 2 of 2): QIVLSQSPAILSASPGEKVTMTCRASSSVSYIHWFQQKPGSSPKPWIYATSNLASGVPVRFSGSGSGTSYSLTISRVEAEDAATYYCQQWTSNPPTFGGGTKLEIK

How did the Kd [1] turn out when “cyclic Z3 (intein-cyclized trimer of the Staphylococcus aureus protein A Z domain) (designed binder)” was run?
The Kd was 3.3 nM.

And the koff [1]?
The koff was 0.00073 s⁻¹.

And the kon [1]?
Its kon is 220000 M⁻¹ s⁻¹.

What about the increase of the lower transition temperature of rituximab [2] of the same substance?
Its increase of the lower transition temperature of rituximab is 4.9 °C.

And the upward shift of the 81.3 °C transition of rituximab [2]?
The upward shift of the 81.3 °C transition of rituximab was 1.5 °C.

And the Kd [3]?
Its Kd is 7.6 nM.

And the dH [3]?
Its dH is -32.7 kcal/mol.

What about the stoichiometry N (IgG1 molecules per cyclic Z3 molecule) [3] of the same substance?
Its stoichiometry N (IgG1 molecules per cyclic Z3 molecule) is 2.1.

For “linear Z3 (linear trimer of the Staphylococcus aureus protein A Z domain) (designed binder)”, which stoichiometry N [4] is on record?
Its stoichiometry N is < 3.

What about the Kd [1] of the same substance?
Its Kd is 2.9 nM.

And the koff [1]?
Its koff is 0.00092 s⁻¹.

What about the kon [1] of the same substance?
Its kon is 310000 M⁻¹ s⁻¹.

What about the increase of the lower transition temperature of rituximab [2] of the same substance?
The increase of the lower transition temperature of rituximab was 4.9 °C.

What about the upward shift of the 81.3 °C transition of rituximab [2] of the same substance?
Its upward shift of the 81.3 °C transition of rituximab is 3.3 °C.

What about the Kd [3] of the same substance?
Its Kd is 2.8 nM.

And the dH [3]?
The dH was -33 kcal/mol.

What about the stoichiometry N (IgG1 molecules per linear Z3) [3] of the same substance?
The stoichiometry N (IgG1 molecules per linear Z3) was 1.9.

Source: publication PMC9865183
